Data published in patent publication US20190241669A1 (published 2019).

Key:
[1] = biological target: BCMA on MM1S cells (human) (UniProt Q02223); test: cell-based or functional assay
[2] = biological target: human BCMA (B-cell maturation antigen) (human) (UniProt Q02223); test: cell-based or functional assay
Human BCMA (human) = Human BCMA (human) (UniProt Q02223); test: SPR, IgG on chip, huBCMA analyte
cynomolgus monkey BCMA = biological target: T1, cynomolgus monkey BCMA (cynomolgus monkey, UniProt A0A2K5UD97 1-53); test: SPR, IgG on chip, cyBCMA analyte
T1 construct: Soluble analyte in SPR; construct not described; also called cyBCMA; Cyno BCMA
T1 sequence (A0A2K5UD97 entry or part of it): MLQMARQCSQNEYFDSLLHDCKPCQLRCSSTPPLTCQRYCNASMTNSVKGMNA

[3] = biological target: BCMA (analyte of Table 4A); test: SPR (Bio-Rad ProteOn XPR36), IgG amine-coupled, BCMA as analyte, kinetic titration; BCMA species and temperature not stated in Table 4A
Chain of BCMA (analyte of Table 4A) (Q02223 whole entry): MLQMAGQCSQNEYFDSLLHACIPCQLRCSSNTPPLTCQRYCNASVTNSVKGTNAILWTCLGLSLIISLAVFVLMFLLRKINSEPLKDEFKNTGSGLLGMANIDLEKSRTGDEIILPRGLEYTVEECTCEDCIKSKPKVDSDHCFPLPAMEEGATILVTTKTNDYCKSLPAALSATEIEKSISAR

Chain of human BCMA (B-cell maturation antigen) (human) (Q02223 other isoform, or with tags, fused parts or gaps): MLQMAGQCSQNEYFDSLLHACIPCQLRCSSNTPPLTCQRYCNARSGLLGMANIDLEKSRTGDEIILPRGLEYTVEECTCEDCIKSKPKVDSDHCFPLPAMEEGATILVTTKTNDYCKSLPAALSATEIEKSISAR
Chain of BCMA on MM1S cells (human) (Q02223 whole entry): as the sequence (Q02223 whole entry) above

| Binder | % CD107a+ (in CD8+) [1] [%] | MFI CD107a+ [1] | % CD107a+ (in CD8+) (degranulation, CAR-T cells with MM1S cells, Donor 2) [2] [%] | MFI CD107a+ (degranulation, CAR-T cells with MM1S cells, Donor 2) [2] [MFI] | % CD107a+ (in CD8+) (degranulation, CAR-T cells with MM1S cells, Donor 3) [2] [%] | MFI CD107a+ (degranulation, CAR-T cells with MM1S cells, Donor 3) [2] [MFI] | Kd (Human BCMA (human)) [nM] | koff (Human BCMA (human)) [s⁻¹] | kon (Human BCMA (human)) [M⁻¹ s⁻¹] | Kd (cynomolgus monkey BCMA) [nM] | koff (cynomolgus monkey BCMA) [s⁻¹] | kon (cynomolgus monkey BCMA) [M⁻¹ s⁻¹] | Kd [3] [nM] | koff [3] [s⁻¹] | kon [3] [M⁻¹ s⁻¹] | t1/2 [3] [min] |
| --- | --- | --- | --- | --- | --- | --- | --- | --- | --- | --- | --- | --- | --- | --- | --- | --- |
| P6AP-V1 (protein) EVQLLESGGGLVQPGGSLRLSCAASGFTFGSYAMTWVRQAPGKGLEWVSAISGSGGNTFYADSVKGRFTISRDNSKNTLYLQMNSLRAEDTAVYYCARVSPIAAPMDYWGQGTLVTVSSGGGGSGGGGSGGGGSEIVLTQSPGTLSLSPGERATLSCRASQLGSFYLAWYQQKPGQAPRLLIYGASSRATGIPDRFSGSGSGTDFTLTISRLEPEDFAVYYCQHYNYPPSFTFGQGTKVEIKGLAVSTISSFFPPGYQIYIWAPLAGTCGVLLLSLVITLYCKRGRKKLLYIFKQPFMRPVQTTQEEDGCSCRFPEEEEGGCELRVKFSRSADAPAYQQGQNQLYNELNLGRREEYDVLDKRRGRDPEMGGKPRRKNPQEGLYNELQKDKMAEAYSEIGMKGERRRGKGHDGLYQGLSTATKDTYDALHMQALPPR | 46.4 | 1850 |  |  |  |  |  |  |  |  |  |  |  |  |  |  |
| P5AC16-V1 BCMA specific CAR (protein) EVQLLESGGGLVQPGGSLRLSCAASGFTFSSYAMNWVRQAPGKGLEWVSAISDFGGSTYYADSVKGRFTISRDNSKNTLYLQMNSLRAEDTAVYYCARYWPMDIWGQGTLVTVSSGGGGSGGGGSGGGGSEIVLTQSPGTLSLSPGERATLSCRASQSVSDLYLAWYQQKPGQAPRLLMYDASIRATGIPDRFSGSGSGTDFTLTISRLEPEDFAVYYCQQYQTWPLTFGQGTKVEIKGLAVSTISSFFPPGYQIYIWAPLAGTCGVLLLSLVITLYCKRGRKKLLYIFKQPFMRPVQTTQEEDGCSCRFPEEEEGGCELRVKFSRSADAPAYQQGQNQLYNELNLGRREEYDVLDKRRGRDPEMGGKPRRKNPQEGLYNELQKDKMAEAYSEIGMKGERRRGKGHDGLYQGLSTATKDTYDALHMQALPPR |  |  | 61.6 | 1860 |  |  |  |  |  |  |  |  |  |  |  |  |
| PC1-V1 BCMA specific CAR (protein) EVQLLESGGGLVQPGGSLRLSCAASGFTFSSYPMSWVRQAPGKGLEWVSAIGGSGGSTYYADSVKGRFTISRDNSKNTLYLQMNSLRAEDTAVYYCARYWPMDSWGQGTLVTVSSGGGGSGGGGSGGGGSEIVLTQSPGTLSLSPGERATLSCRASQSVSSTYLAWYQQKPGQAPRLLIYDASSRAPGIPDRFSGSGSGTDFTLTISRLEPEDFAVYYCQQYSTSPLTFGQGTKVEIKGLAVSTISSFFPPGYQIYIWAPLAGTCGVLLLSLVITLYCKRGRKKLLYIFKQPFMRPVQTTQEEDGCSCRFPEEEEGGCELRVKFSRSADAPAYQQGQNQLYNELNLGRREEYDVLDKRRGRDPEMGGKPRRKNPQEGLYNELQKDKMAEAYSEIGMKGERRRGKGHDGLYQGLSTATKDTYDALHMQALPPR |  |  |  |  | 75.6 | 2180 |  |  |  |  |  |  |  |  |  |  |
| A02_Rd4_6nM_C01 (antibody, V domains shown, IgG) VH: EVQLLESGGGLVQPGGSLRLSCAASGFTFSSYAMNWVRQAPGKGLEWVSAITASGGSTYYADSVKGRFTISRDNSKNTLYLQMNSLRAEDTAVYYCARYWPMSLWGQGTLVTVSS VL: EIVLTQSPGTLSLSPGERATLSCRASQSVSAYYLAWYQQKPGQAPRLLMYDASIRATGIPDRFSGSGSGTDFTLTISRLEPEDFAVYYCQQYERWPLTFGQGTKVEIK |  |  |  |  |  |  | 0.03 | 9.2e-05 | 3.11e+06 | 0.401 | 0.000583 | 1.45e+06 | 0.024 | 2.8e-05 | 1.2e+06 | 411 |
| A02_Rd4_6nM_C16 (antibody, V domains shown, IgG; also called P5AC16; P5A16) VH: EVQLLESGGGLVQPGGSLRLSCAASGFTFSSYAMNWVRQAPGKGLEWVSAISDFGGSTYYADSVKGRFTISRDNSKNTLYLQMNSLRAEDTAVYYCARYWPMDIWGQGTLVTVSS VL: EIVLTQSPGTLSLSPGERATLSCRASQSVSDLYLAWYQQKPGQAPRLLMYDASIRATGIPDRFSGSGSGTDFTLTISRLEPEDFAVYYCQQYQTWPLTFGQGTKVEIK |  |  |  |  |  |  | 0.09 | 0.000141 | 1.56e+06 | 0.118 | 0.000158 | 1.34e+06 | 0.059 | 6.2e-05 | 1.1e+06 | 187 |
| COMBO_Rd4_0.6nM_C29 (antibody, V domains shown, IgG) VH: EVQLLESGGGLVQPGGSLRLSCAASGFTFSSYPMSWVRQAPGKGLEWVSAIGGSGGSLPYADSVKGRFTISRDNSKNTLYLQMNSLRAEDTAVYYCARYWPMDIWGQGTLVTVSS VL: EIVLTQSPGTLSLSPGERATLSCRASQSVSSSYLAWYQQKPGQAPRLLMYDASIRATGIPDRFSGSGSGTDFTLTISRLEPEDFAVYYCQQYQSWPLTFGQGTKVEIK |  |  |  |  |  |  | 0.019 | 0.000277 | 1.47e+07 | 0.084 | 0.000336 | 4e+06 | 0.021 | 0.00014 | 6.6e+06 | 83 |
